Laboratory results reported in patent US10253323B2, “Chloroplast transit peptides” (priority 2015, dated 2019).

Tests used:
[1] = system: Wildtype, non-transformed Arabidopsis thaliana c.v. Columbia; assay: Glyphosate response of non-transformed control Arabidopsis; format: in vivo; conditions: WT (non-transformed control), 14 days after application
Procedure: (§1) The Arabidopsis T1 transformants (from transformation with pDAB114286 or pDAB114287) were first selected from the background of untransformed seed using a glufosinate selection scheme. Three flats or 50,000 seed were analyzed for each T1 construct. The selected T1 plants were molecularly characterized (as described above) and events with a range of copy number were sprayed with various rates of commercial glyphosate.
(§2) Transgenic T1 Arabidopsis plants containing the dgt-28 transgene were sprayed with differing rates of glyphosate. Elevated rates were applied in this study to determine the relative levels of resistance (420, 840, 1,680 or 3,360 g ae/ha). The typical 1× field usage rate of glyphosate is 1120 g ae/ha. The response of these plants is presented in terms of % visual injury 2 weeks after treatment (WAT). The T1 Arabidopsis plants that were used in this study were of variable copy number for the dgt-28 transgene. The low copy dgt-28 T1 Arabidopsis plants were self-pollinated and used to produce T2 plants.
(§3) An arithmetic mean and standard deviation is presented for each construct used for Arabidopsis transformation. The range in individual response is also indicated in the last column for each rate and transformation. Wildtype, non-transformed Arabidopsis thaliana c.v. Columbia served as a glyphosate sensitive control.

[2] = system: dgt-28 transformed T1 Arabidopsis; assay: Glyphosate tolerance of dgt-28 transformed T1 Arabidopsis; format: in vivo, Arabidopsis thaliana; conditions: 14 days after application
Procedure: as §1, §2, §3

[3] = 420 g ae/ha glyphosate postemergence
[4] = 840 g ae/ha glyphosate postemergence
[5] = 1680 g ae/ha glyphosate postemergence
[6] = 3360 g ae/ha glyphosate postemergence

Row | Molecule | % Injury Analysis Ave [2, 3] | % Injury Analysis Range (%) [2, 3] | % Injury Range (No. Replicates) 20-40% [2, 3] | % Injury Range (No. Replicates) <20% [2, 3] | % Injury Range (No. Replicates) >40% [2, 3] | % Injury Analysis Ave [2, 4] | % Injury Analysis Range (%) [2, 4] | % Injury Range (No. Replicates) 20-40% [2, 4] | % Injury Range (No. Replicates) <20% [2, 4] | % Injury Range (No. Replicates) >40% [2, 4] | % Injury Analysis Ave [2, 5] | % Injury Analysis Range (%) [2, 5] | % Injury Range (No. Replicates) 20-40% [2, 5] | % Injury Range (No. Replicates) <20% [2, 5] | % Injury Range (No. Replicates) >40% [2, 5] | % Injury Analysis Ave [2, 6] | % Injury Analysis Range (%) [2, 6] | % Injury Range (No. Replicates) 20-40% [2, 6] | % Injury Range (No. Replicates) <20% [2, 6] | % Injury Range (No. Replicates) >40% [2, 6] | also measured
1 | O=C(O)CNCP(=O)(O)O [glyphosate] |  |  |  |  |  |  |  |  |  |  |  |  |  |  |  |  |  |  |  |  | % Injury Analysis Ave ([1]; 420 g ae/ha postemergence): 100.0%; % Injury Analysis Range (%) ([1]; 420 g ae/ha postemergence): 100%; % Injury Range (No. Replicates) 20-40% ([1]; 420 g ae/ha postemergence): 0; % Injury Range (No. Replicates) <20% ([1]; 420 g ae/ha postemergence): 0; % Injury Range (No. Replicates) >40% ([1]; 420 g ae/ha postemergence): 4; % Injury Analysis Ave ([1]; 840 g ae/ha postemergence): 100.0%; % Injury Analysis Range (%) ([1]; 840 g ae/ha postemergence): 100%; % Injury Range (No. Replicates) 20-40% ([1]; 840 g ae/ha postemergence): 0; % Injury Range (No. Replicates) <20% ([1]; 840 g ae/ha postemergence): 0; % Injury Range (No. Replicates) >40% ([1]; 840 g ae/ha postemergence): 4; % Injury Analysis Ave ([1]; 1680 g ae/ha postemergence): 100.0%; % Injury Analysis Range (%) ([1]; 1680 g ae/ha postemergence): 100%; % Injury Range (No. Replicates) 20-40% ([1]; 1680 g ae/ha postemergence): 0; % Injury Range (No. Replicates) <20% ([1]; 1680 g ae/ha postemergence): 0; % Injury Range (No. Replicates) >40% ([1]; 1680 g ae/ha postemergence): 4; % Injury Analysis Ave ([1]; 3360 g ae/ha postemergence): 100.0%; % Injury Analysis Range (%) ([1]; 3360 g ae/ha postemergence): 100%; % Injury Range (No. Replicates) 20-40% ([1]; 3360 g ae/ha postemergence): 0; % Injury Range (No. Replicates) <20% ([1]; 3360 g ae/ha postemergence): 0; % Injury Range (No. Replicates) >40% ([1]; 3360 g ae/ha postemergence): 4
2 | TraP27::dgt-28: TraP27-dgt28 fusion gene (SEQ ID NO:28) in construct pDAB114287, expressed in T1 Arabidopsis (protein, Trap27 DGT28 fusion coding sequence) MATFTRVCHTARKSFVSLSNSQANSPVSVRFLSLPMPAARPAVKSGVRLWGCRLSFKVSASARGMPALSLPGSKSITARALFLAAAADGVTTLVRPLRSDDTEGFAEGLVRLGYRVGRTPDTWQVDGRPQGPAVAEADVYCRDGATTARFLPTLAAAGHGTYRFDASPQMRRRPLLPLSRALRDLGVDLRHEEAEGHHPLTVRAAGVEGGEVTLDAGQSSQYLTALLLLGPLTRQGLRIRVTDLVSAPYVEITLAMMRAFGVEVAREGDVFVVPPGGYRATTYAIEPDASTASYFFAAAALTPGAEVTVPGLGTGALQGDLGFVDVLRRMGAEVSVGADATTVRGTGELRGLTANMRDISDTMPTLAAIAPFASAPVRIEDVANTRVKECDRLEACAENLRRLGVRVATGPDWIEIHPGPATGAQVTSYGDHRIVMSFAVTGLRVPGISFDDPGCVRKTFPGFHEAFAELRRGIGS | 19.0% | 10-30% | 1 | 3 | 0 | 15.8% | 10-20% | 1 | 3 | 0 | 18.8% | 15-20% | 3 | 1 | 0 | 25.0% | 25% | 4 | 0 | 0 | 
3 | TraP26::dgt-28: TraP26-dgt28 fusion gene (SEQ ID NO:27) in construct pDAB114286, expressed in T1 Arabidopsis (protein, Trap26 DGT28 fusion coding sequence) MAQVSMIPNAIQAPCSISLSKSQAGKSVRKVSLKPNQHAAWGLRRSGMRVGNPEVVVSASARGMPALSLPGSKSITARALFLAAAADGVTTLVRPLRSDDTEGFAEGLVRLGYRVGRTPDTWQVDGRPQGPAVAEADVYCRDGATTARFLPTLAAAGHGTYRFDASPQMRRRPLLPLSRALRDLGVDLRHEEAEGHHPLTVRAAGVEGGEVTLDAGQSSQYLTALLLLGPLTRQGLRIRVTDLVSAPYVEITLAMMRAFGVEVAREGDVFVVPPGGYRATTYAIEPDASTASYFFAAAALTPGAEVTVPGLGTGALQGDLGFVDVLRRMGAEVSVGADATTVRGTGELRGLTANMRDISDTMPTLAAIAPFASAPVRIEDVANTRVKECDRLEACAENLRRLGVRVATGPDWIEIHPGPATGAQVTSYGDHRIVMSFAVTGLRVPGISFDDPGCVRKTFPGFHEAFAELRRGIGS | 0.0% | 0% | 0 | 4 | 0 | 0.0% | 0% | 0 | 4 | 0 | 10.0% | 10% | 0 | 4 | 0 | 16.3% | 15-20% | 1 | 3 | 0 | 
